According to the supplement of paper PMC5998384:

Key:
HeLa Kyoto [1] = test: solubility change mitosis vs G1/S (difference of NP-40 vs SDS log2 ratios) (log2 ratio difference); higher = more soluble in mitosis
HeLa Kyoto [2] = test: solubility in G1/S (NP-40 vs SDS abundance) (log2 ratio); higher = more soluble; settings: cell cycle stage: G1/S
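Throughout, for solubility change mitosis vs G1/S (difference of NP-40 vs SDS log2 ratios): synchronized HeLa Kyoto cells (double thymidine block for G1/S, nocodazole release for mitosis), protein amounts in NP-40 versus SDS lysates quantified by mass spectrometry, three biological replicates.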
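Throughout, for solubility in G1/S (NP-40 vs SDS abundance): HeLa Kyoto cells arrested at G1/S by double thymidine block, proteins quantified by TMT10plex mass spectrometry in mild NP-40 versus SDS extracts, three biological replicates.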

MAP4K5, sequence (chain, as listed by the source): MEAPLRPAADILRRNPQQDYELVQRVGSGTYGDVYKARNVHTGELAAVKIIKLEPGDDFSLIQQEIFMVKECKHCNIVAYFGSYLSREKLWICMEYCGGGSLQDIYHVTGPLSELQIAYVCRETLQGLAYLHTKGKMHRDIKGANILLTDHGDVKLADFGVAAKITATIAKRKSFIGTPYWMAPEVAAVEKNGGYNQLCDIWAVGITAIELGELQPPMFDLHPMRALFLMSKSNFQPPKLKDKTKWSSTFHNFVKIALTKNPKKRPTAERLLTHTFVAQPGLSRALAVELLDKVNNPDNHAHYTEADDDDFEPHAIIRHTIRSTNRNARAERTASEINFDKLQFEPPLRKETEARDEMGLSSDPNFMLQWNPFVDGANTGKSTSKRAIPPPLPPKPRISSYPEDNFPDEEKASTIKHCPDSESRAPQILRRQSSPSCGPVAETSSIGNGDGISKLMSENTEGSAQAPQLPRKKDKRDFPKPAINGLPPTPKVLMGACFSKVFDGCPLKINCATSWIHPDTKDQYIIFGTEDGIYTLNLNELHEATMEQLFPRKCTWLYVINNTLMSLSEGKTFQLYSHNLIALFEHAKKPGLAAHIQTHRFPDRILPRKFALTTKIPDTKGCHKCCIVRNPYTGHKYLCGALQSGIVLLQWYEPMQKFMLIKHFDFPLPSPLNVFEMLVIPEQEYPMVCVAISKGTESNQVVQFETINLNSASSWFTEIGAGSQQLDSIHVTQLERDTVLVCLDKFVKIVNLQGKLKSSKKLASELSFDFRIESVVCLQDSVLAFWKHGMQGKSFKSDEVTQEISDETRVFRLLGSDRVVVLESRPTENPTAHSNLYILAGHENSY

| Substance | solubility change mitosis (log2) (HeLa Kyoto [1]) | solubility in G1/S (log2) (HeLa Kyoto [2]) |
| --- | --- | --- |
| MALLRRPTVSSDLENIDTGVNSKVKSHVTIRRTVLEEIGNRVTTRAAQVAKKAQNTKVPVQPTKTTNVNKQLKPTASVKPVQMEKLAPKGPSPTPEDVSMKEENLCQAFSDALLCKIEDIDNEDWENPQLCSDYVKDIYQYLRQLEVLQSINPHFLDGRDINGRMRAILVDWLVQVHSKFRLLQETLYMCVGIMDRFLQVQPVSRKKLQLVGITALLLASKYEEMFSPNIEDFVYITDNAYTSSQIREMETLILKELKFELGRPLPLHFLRRASKAGEVDVEQHTLAKYLMELTLIDYDMVHYHPSKVAAAASCLSQKVLGQGKWNLKQQYYTGYTENEVLEVMQHMAKNVVKVNENLTKFIAIKNKYASSKLLKISMIPQLNSKAVKDLASPLIGRS [CCNB2] | 0.0941 | 0.241 |
| MALRSAQGDGPTSGHWDGGAEKADFNAKRKKKVAEIHQALNSDPTDVAALRRMAISEGGLLTDEIRRKVWPKLLNVNANDPPPISGKNLRQMSKDYQQVLLDVRRSLRRFPPGMPEEQREGLQEELIDIILLILERNPQLHYYQGYHDIVVTFLLVVGERLATSLVEKLSTHHLRDFMDPTMDNTKHILNYLMPIIDQVNPELHDFMQSAEVGTIFALSWLITWFGHVLSDFRHVVRLYDFFLACHPLMPIYFAAVIVLYREQEVLDCDCDMASVHHLLSQIPQDLPYETLISRAGDLFVQFPPSELAREAAAQQQAERTAASTFKDFELASAQQRPDMVLRQRFRGLLRPEDRTKDVLTKPRTNRFVKLAVMGLTVALGAAALAVVKSALEWAPKFQLQLFP [TBC1D20] | -0.0896 | -0.427 |
| MAMASPAIGQRPYPLLLDPEPPRYLQSLSGPELPPPPPDRSSRLCVPAPLSTAPGAREGRSARRAARGNLEPPPRASRPARPLRPGLQQRLRRRPGAPRPRDVRSIFEQPQDPRVPAERGEGHCFAELVLPGGPGWCDLCGREVLRQALRCTNCKFTCHPECRSLIQLDCSQQEGLSRDRPSPESTLTVTFSQNVCKPVEETQRPPTLQEIKQKIDSYNTREKNCLGMKLSEDGTYTGFIKVHLKLRRPVTVPAGIRPQSIYDAIKEVNLAATTDKRTSFYLPLDAIKQLHISSTTTVSEVIQGLLKKFMVVDNPQKFALFKRIHKDGQVLFQKLSIADRPLYLRLLAGPDTEVLSFVLKENETGEVEWDAFSIPELQNFLTILEKEEQDKIQQVQKKYDKFRQKLEEALRESQGKPG [RASSF5] | -0.108 | 0.328 |
| MAP4K5 | -0.0819 | 0.172 |
| MAPEENAGTELLLQSFERRFLAARTLRSFPWQSLEAKLRDSSDSELLRDILHKTVKHPVCVKHPPSVKYARCFLSELIKKHEAVHTEPLDELYEALAETLMAKESTQGHRSYLLPSGGSVTLSESTAIISYGTTGLVTWDAALYLAEWAIENPAVFTNRTVLELGSGAGLTGLAICKMCRPRAYIFSDCHSRVLEQLRGNVLLNGLSLEADITAKLDSPRVTVAQLDWDVATVHQLSAFQPDVVIAADVLYCPEAIMSLVGVLRRLAACREHQRAPEVYVAFTVRNPETCQLFTTELGRAGIRWEVEPRHEQKLFPYEEHLEMAMLNLTL [EEF2KMT] | -0.00202 | 0.0707 |
| MAPGEVTITVRLIRSFEHRNFKPVVYHGVNLDQTVKEFIVFLKQDIPLRTNLPPPFRNYKYDALKIIHQAHKSKTNELVLSLEDDERLLLKEDSTLKAAGIASETEIAFFCEEDYKNYKANPISSW [C2ORF76] | 0.0795 | -0.239 |
| MAPPAGGAAAAASDLGSAAVLLAVHAAVRPLGAGPDAEAQLRRLQLSADPERPGRFRLELLGAGPGAVNLEWPLESVSYTIRGPTQHELQPPPGGPGTLSLHFLNPQEAQRWAVLVRGATVEGQNGSKSNSPPALGPEACPVSLPSPPEASTLKGPPPEADLPRSPGNLTEREELAGSLARAIAGGDEKGAAQVAAVLAQHRVALSVQLQEACFPPGPIRLQVTLEDAASAASAASSAHVALQVHPHCTVAALQEQVFSELGFPPAVQRWVIGRCLCVPERSLASYGVRQDGDPAFLYLLSAPREAPATGPSPQHPQKMDGELGRLFPPSLGLPPGPQPAASSLPSPLQPSWSCPSCTFINAPDRPGCEMCSTQRPCTWDPLAAAST [SHARPIN] | -0.0725 | 0.196 |
| MAPRKGSSRVAKTNSLRRRKLASFLKDFDREVEIRIKQIESDRQNLLKEVDNLYNIEILRLPKALREMNWLDYFALGGNKQALEEAATADLDITEINKLTAEAIQTPLKSAKTRKVIQVDEMIVEEEEEEENERKNLQTARVKRCPPSKKRTQSIQGKGKGKRSSRANTVTPAVGRLEVSMVKPTPGLTPRFDSRVFKTPGLRTPAAGERIYNISGNGSPLADSKEIFLTVPVGGGESLRLLASDLQRHSIAQLDPEALGNIKKLSNRLAQICSSIRTHK [CDCA8] | 0.0931 | -1.64 |
| MAQAHRTPQPRAAPSQPRVFKLVLLGSGSVGKSSLALRYVKNDFKSILPTVGCAFFTKVVDVGATSLKLEIWDTAGQEKYHSVCHLYFRGANAALLVYDITRKDSFLKAQQWLKDLEEELHPGEVLVMLVGNKTDLSQEREVTFQEGKEFADSQKLLFMETSAKLNHQVSEVFNTVAQELLQRSDEEGQALRGDAAVALNKGPARQAKCCAH [RAB17] | -0.134 | 0.138 |
| MAQASLLACEGLAGVSLVPTAASKKMMLSQIASKQAENGERAGSPDVLRCSSQGHRKDSDKSRSRKDDDSLSEASHSKKTVKKVVVVEQNGSFQVKIPKNFVCEHCFGAFRSSYHLKRHILIHTGEKPFECDICDMRFIQKYHLERHKRVHSGEKPYQCERCHQCFSRTDRLLRHKRMCQGCQSKTSDGQFSL [ZNF740] | -0.0892 | -0.111 |
| MAQGLIEVERKFLPGPGTEERLQELGGTLEYRVTFRDTYYDTPELSLMQADHWLRRREDSGWELKCPGAAGVLGPHTEYKELTAEPTIVAQLCKVLRADGLGAGDVAAVLGPLGLQEVASFVTKRSAWKLVLLGADEEEPQLRVDLDTADFGYAVGEVEALVHEEAEVPTALEKIHRLSSMLGVPAQETAPAKLIVYLQRFRPQDYQRLLEVNSSRERPQETEDPDHCLG [THTPA] | 0.0566 | 0.0904 |
| MAQGSHQIDFQVLHDLRQKFPEVPEVVVSRCMLQNNNNLDACCAVLSQESTRYLYGEGDLNFSDDSGISGLRNHMTSLNLDLQSQNIYHHGREGSRMNGSRTLTHSISDGQLQGGQSNSELFQQEPQTAPAQVPQGFNVFGMSSSSGASNSAPHLGFHLGSKGTSSLSQQTPRFNPIMVTLAPNIQTGRNTPTSLHIHGVPPPVLNSPQGNSIYIRPYITTPGGTTRQTQQHSGWVSQFNPMNPQQVYQPSQPGPWTTCPASNPLSHTSSQQPNQQGHQTSHVYMPISSPTTSQPPTIHSSGSSQSSAHSQYNIQNISTGPRKNQIEIKLEPPQRNNSSKLRSSGPRTSSTSSSVNSQTLNRNQPTVYIAASPPNTDELMSRSQPKVYISANAATGDEQVMRNQPTLFISTNSGASAASRNMSGQVSMGPAFIHHHPPKSRAIGNNSATSPRVVVTQPNTKYTFKITVSPNKPPAVSPGVVSPTFELTNLLNHPDHYVETENIQHLTDPTLAHVDRISETRKLSMGSDDAAYTQALLVHQKARMERLQRELEIQKKKLDKLKSEVNEMENNLTRRRLKRSNSISQIPSLEEMQQLRSCNRQLQIDIDCLTKEIDLFQARGPHFNPSAIHNFYDNIGFVGPVPPKPKDQRSIIKTPKTQDTEDDEGAQWNCTACTFLNHPALIRCEQCEMPRHF [TAB2] | -0.0447 | 0.348 |
| MAQKENSYPWPYGRQTAPSGLSTLPQRVLRKEPVTPSALVLMSRSNVQPTAAPGQKVMENSSGTPDILTRHFTIDDFEIGRPLGKGKFGNVYLAREKKSHFIVALKVLFKSQIEKEGVEHQLRREIEIQAHLHHPNILRLYNYFYDRRRIYLILEYAPRGELYKELQKSCTFDEQRTATIMEELADALMYCHGKKVIHRDIKPENLLLGLKGELKIADFGWSVHAPSLRRKTMCGTLDYLPPEMIEGRMHNEKVDLWCIGVLCYELLVGNPPFESASHNETYRRIVKVDLKFPASVPMGAQDLISKLLRHNPSERLPLAQVSAHPWVRANSRRVLPPSALQSVA [AURKB] | -0.11 | -1.2 |
| MAQRYDDLPHYGGMDGVGIPSTMYGDPHAARSMQPVHHLNHGPPLHSHQYPHTAHTNAMAPSMGSSVNDALKRDKDAIYGHPLFPLLALIFEKCELATCTPREPGVAGGDVCSSESFNEDIAVFAKQIRAEKPLFSSNPELDNLMIQAIQVLRFHLLELEKVHELCDNFCHRYISCLKGKMPIDLVIDDREGGSKSDSEDITRSANLTDQPSWNRDHDDTASTRSGGTPGPSSGGHTSHSGDNSSEQGDGLDNSVASPSTGDDDDPDKDKKRHKKRGIFPKVATNIMRAWLFQHLTHPYPSEEQKKQLAQDTGLTILQVNNWFINARRRIVQPMIDQSNRAVSQGTPYNPDGQPMGGFVMDGQQHMGIRAPGPMSGMGMNMGMEGQWHYM [MEIS1] | -0.208 | 0.363 |
| MARGGDTGCTGPSETSASGAAAIALPGLEGPATDAQCQTLPLTVLKSRSPSPRSLPPALSCPPPQPAMLEHLSSLPTQMDYKGQKLAEQMFQGIILFSAIVGFIYGYVAEQFGWTVYIVMAGFAFSCLLTLPPWPIYRRHPLKWLPVQESSTDDKKPGERKIKRHAKNN [SPCS1] | -0.00723 | -0.248 |
| MASESETLNPSARIMTFYPTMEEFRNFSRYIAYIESQGAHRAGLAKVVPPKEWKPRASYDDIDDLVIPAPIQQLVTGQSGLFTQYNIQKKAMTVREFRKIANSDKYCTPRYSEFEELERKYWKNLTFNPPIYGADVNGTLYEKHVDEWNIGRLRTILDLVEKESGITIEGVNTPYLYFGMWKTSFAWHTEDMDLYSINYLHFGEPKSWYSVPPEHGKRLERLAKGFFPGSAQSCEAFLRHKMTLISPLMLKKYGIPFDKVTQEAGEFMITFPYGYHAGFNHGFNCAESTNFATRRWIEYGKQAVLCSCRKDMVKISMDVFVRKFQPERYKLWKAGKDNTVIDHTLPTPEAAEFLKESELPPRAGNEEECPEEDMEGVEDGEEGDLKTSLAKHRIGTKRHRVCLEIPQEVSQSELFPKEDLSSEQYEMTECPAALAPVRPTHSSVRQVEDGLTFPDYSDSTEVKFEELKNVKLEEEDEEEEQAAAALDLSVNPASVGGRLVFSGSKKKSSSSLGSGSSRDSISSDSETSEPLSCRAQGQTGVLTVHSYAKGDGRVTVGEPCTRKKGSAARSFSERELAEVADEYMFSLEENKKSKGRRQPLSKLPRHHPLVLQECVSDDETSEQLTPEEEAEETEAWAKPLSQLWQNRPPNFEAEKEFNETMAQQAPHCAVCMIFQTYHQVEFGGFNQNCGNASDLAPQKQRTKPLIPEMCFTSTGCSTDINLSTPYLEEDGTSILVSCKKCSVRVHASCYGVPPAKASEDWMCSRCSANALEEDCCLCSLRGGALQRANDDRWVHVSCAVAILEARFVNIAERSPVDVSKIPLPRFKLKCIFCKKRRKRTAGCCVQCSHGRCPTAFHVSCAQAAGVMMQPDDWPFVVFITCFRHKIPNLERAKGALQSITAGQKVISKHKNGRFYQCEVVRLTTETFYEVNFDDGSFSDNLYPEDIVSQDCLQFGPPAEGEVVQVRWTDGQVYGAKFVASHPIQMYQVEFEDGSQLVVKRDDVYTLDEELPKRVKSRLSVASDMRFNEIFTEKEVKQEKKRQRVINSRYREDYIEPALYRAIME [KDM4A] | 0.0206 | -0.143 |
